Results: the DeepSol protein solubility set

Test: soluble on expression in E. coli; label from the status in PepcDB or PDB records

| Sequence | soluble on expression in E. coli |
| --- | --- |
| MKDDRQKASVLAVRMIPNVDLAMCKEFSMPEGHRSIGLITSDCDDVTYTALDDATKKADIKVVYAKSFYGGAANANTKLAGEVIGIISGPNPAEVKSGLSAVVDFVENEAAFISANEDDSIAYYAHCISRTGSYLSEVAGIPEGESIAYLIAPPLEAMYALDVALKSANVELVAFYGPPSETNFGGGLLTGSQSACKAACDAFAEAVKAVAANPLGY | not soluble |
| MSLTSKPYIMGVDIGTSSTKAVLFNQRGEVIFRQATHYELITDETGKAEESPTEIFDAVLTSIQAVMKNINTEELAGISFSSAMHSLIMVGSNGELLTECITWADGRSSETLEKVKRDNYLFQLYEATGTPIHPMSPFAKICWLKEEKPTLFKRTEKFVDIKSYILYRLFGVWVMDESLASGTGLYNIMEHDWEFEAMEIVKLTPDFLPKVVPETYQLAGVKKEYAELMGIPENLPFIIGGSDGALANIGIQATGQNDVTITVGTSGAVRKLTDQFQIDSRGRTFCYGAGDGYFIAGGAVNNGGKVVEWGLQQFGSEAEISRRDFASFIAKIEEVPPGAAGLLFQPYLLGERAPFWTNDIRGGFVGLTINHTKAHFIRAILEGVAFNLAEVYEAVSAPDDIIYVTGGISAHDAWCKLLADILNREIRVPHTIEGSSLGAAIIGMRSLGILKDLNLKHTLPIKAVYHPSENVLKYAELRLIFKQVTTQLMSSYSQLNSWQKKFDINSEGHHHHHH | soluble |
| MKVFEGKPRINSPHITGNYPSTPFIFYIPTSGQRPMQWSAEKLPEGLELDSKTGIISGVMTSKGDYTVTLKAENALGVSVKQLEHHHHHH | not soluble |
| MSLSSWVSESSTETDKYGKSSEGKLYGKSRLSAHPGGIFEPVPYMTSAISLFEYIRERFGYGIEILHDVHERISPIQGVWFAKQVEKYRLFFLEDLFSPEDQHYFEMVRQQCATPIAMGELYVSPNDVIPMMKNKLIDFIRIHISDIGGITPARKIATFGELMGIKTAWHGPGDTSPVGHAANLALNLNSQNFGIQEAAIFGENSKEVFPGCPELRDGMMWSNGKPGLGIDINEELAKKFPFKERVWGGAWEGHHHHHH | not soluble |
| RMALDEVWDSSHFALQPGRAEDGPGASLALRILAARLPDSGVYVCHARNAHGHAQAGALLQVHQPPESPPADPDEAPAPVVEPLKCAPKTFWVNEGKHAKFRCYVMGKPEPEIEWHWEGRPLLPDRRRLMYRDRDGGFVLKVLYCQAKDRGLYVCAARNSAGQTLSAVQLHVKEPRLRFTRPLQDVEGREHGIAVLECKVPNSRIPTAWFREDQRLLPCRKYEQIEEGTVRRLIIHRLKADDDGIYLCEMRGRVRTVANVTVKGPILKRLPRKLDVLEGENAVLLVETLEAGVEGRWSRDGEELPVICQSSSGHMHALVLPGVTREDAGEVTFSLGNSRTTTLLRVKCVKHSPPGPPILAEMFKGHKNTVLLTWKPPEPAPETPFIYRLERQEVGSEDWIQCFSIEKAGAVEVPGDCVPSEGDYRFRICTVSGHGRSPHVVFHGSAHLVPTARLVAGLEDVQVYDGEDAVFSLDLSTIIQGTWFLNGEELKSNEPEGQVEPGALRYRIEQKGLQHRLILHAVKHQDSGALVGFSCPGVQDSAALTIQESPVHILSPQDKVSLTFTTSERVVLTCELSRVDFPATWYKDGQKVEESELLVVKMDGRKHRLILPEAKVQDSGEFECRTEGVSAFFGVTVQDPPVHIVDPREHVFVHAITSECVMLACEVDREDAPVRWYKDGQEVEESDFVVLENEGPHRRLVLPATQPSDGGEFQCVAGDECAYFTVTITDVSSWIVYPSGKVYVAAVRLERVVLTCELCRPWAEVRWTKDGEEVVESPALLLQKEDTVRRLVLPAVQLEDSGEYLCEIDDESASFTVTVTEPPVRIIYPRDEVTLIAVTLECVVLMCELSREDAPVRWYKDGLEVEESEALVLERDGPRCRLVLPAAQPEDGGEFVCDAGDDSAFFTVTVTEPPVQFLALETTPSPLCVAPGEPVVLSCELSRAGAPVVWSHNGRPVQEGEGLELHAEGPRRVLCIQAAGPAHAGLYTCQSGAAPGAPSLSFTVQVAEPPVRVVAPEAAQTRVRSTPGGDLELVVHLSGPGGPVRWYKDGERLASQGRVQLEQAGARQVLRVQGARSGDAGEYLCDAPQDSRIFLVSVEEPLLVKLVSDLTPLTVHEGDDATFRCEVSPPDADVTWLRNGAVVTPGPQRQSCCSYGGCRMCGQRKARTCVSKWRQAEWVQRGPCAGCEVGSPCPTTLACPWPRMGTSTASSSMVSYWPTRAPTAARATTIAPWPGSA | soluble |
| TIPISDKITLYIGRNSANNEKLTFGFAKPDDLWLHARGASGSHCVLKGATMRHTSEIQRAAEIAAWHSSAKHSELVPVICTQKKYLKK | not soluble |
